Source: article PMC4491177, “Co-translational capturing of nascent ribosomal proteins by their dedicated chaperones” (Nature Communications, 2015)

Columns and labels:
[1] = tested on: RPL5 mRNA; assay: co-translational capturing by qRT-PCR, RPL5 mRNA; format: binding, S. cerevisiae; details: Syo1-FTpA purification, cycloheximide-treated cells; one representative experiment, qPCR triplicates
Method: (§1) Cells expressing Sqt1-TAP, NTAP-Rrb1, Syo1-FTpA and Yar1-TAP were grown at 30 °C in 400 ml YPD medium to an optical density (OD600) of 0.8, then cycloheximide was added to a final concentration of 0.2 mg ml^−1 and the flasks were kept, with intermittent vigorous shaking, on ice for 5 min. Cells were harvested by centrifugation for 5 min at 4 °C at 4,000 r.p.m., washed once with 20 ml of ice-cold lysis buffer (100 mM NaCl, 50 mM Tris-HCl (pH 7.5), 1.5 mM MgCl2, 0.1% NP-40 and 5% glycerol) containing 1 mM PMSF and 0.2 mg ml^−1 cycloheximide (lysis buffer-PC) and resuspended in 2 ml of lysis buffer-PC. Equal volumes of the resuspended cells were transferred into two 2.2 ml Eppendorf tubes, briefly centrifuged and resuspended in 600 μl of ice-cold lysis buffer-PC. To prevent RNA degradation, 4 μl of RiboLock (40 U μl^−1; Fermentas) was added. Then glass beads, corresponding to 1/3 of the lysis buffer volume, were added and the tubes were vigorously vortexed for 10 × 30 s with 30-s intervals on ice. Cell extracts were transferred to a new tube and, to maximize the yield, 400 μl of ice-cold lysis buffer-PC was used to rinse the glass beads. […]
(§2) For RNA isolation from the TEV eluate aliquot (∼450 μl), the TEV eluate was adjusted to 10 mM EDTA (pH 8.0) and 0.5% SDS. […] RNA concentrations (A260) were determined using a NanoDrop 1000 spectrophotometer (Thermo Scientific). […]

[2] = soluble expression in E. coli; format: physicochemical; details: data not shown for Rpl10
[3] = tested on: RPL3 mRNA; assay: co-translational capturing by qRT-PCR, RPL3 mRNA; format: binding, S. cerevisiae; details: NTAP-Rrb1 purification, cycloheximide-treated cells; one representative experiment, qPCR triplicates
Method: as §1, §2

[4] = tested on: RPS3 mRNA; assay: co-translational capturing by qRT-PCR, RPS3 mRNA; format: binding, S. cerevisiae; details: Yar1-TAP purification, cycloheximide-treated cells; one representative experiment, qPCR triplicates
Method: as §1, §2

B1: Syo1: transport adaptor, chaperone of Rpl5 (and Rpl11) (protein)
chain: MGRSKKRSRASSSRLNPLRKAGSNDNNKDTNVVNKKLQPLLQNLSSVVPNDRSIALSSISVLCEDAHMRQLLLKEKLVPIILNKLLNDSNSDIVVESFGLLRNLSLEEGYDVSIYLWRSDIWTSITSNFGRIVESLSALQAAEQQPQLKPAGKSKIESKRLLFDFADNLLSLVVALSNGSDDILNEILTESKINEIFQVISQLLKYGVEKLPINLFNTTLDLIYDLSSESFEFIDHVSNNELLSQFLNGLSPALHPQANELTKVLIEGIHCQFLDMKITYDQCNKMIHSVCHSINNIDPVQLVNDINNPVEIGPATSKDESSKVITKIKDYNAKRNESMIKLQSIEIAIDLITAIIEIVASKYESPESQEVAIPEELINTLTNFLPHVFMILKDTFTSRILIGWNNLIWLFVSLSLTELSGELLTTLWSYVTQLDSQDDLSIKIGRMGCIWALLKLIFPDGAFESENRALINVQMLNNSGFARGIIEEFQNNNDLELQQKCINVLSTYAMIQGQIDANKEIGQFFIQTLTQLNVRPEILIEMTNSLFQIYGDASYDYNEPIFVRGGFLSILKDQVVPNLRQQFKMVDKNKNPELKERCHDCFTTLDSFIHYKMNENSTNQ
modifications: left off: FTpA, end not stated, kept
enrichment of the specific ribosomal protein mRNA (RPL5) [1]: roughly 100 -fold

B2: Rrb1: dedicated chaperone of Rpl3; purified as NTAP-Rrb1 in b27 (protein, UniProt Q04225 1-511, looked up)
Ribosome assembly protein RRB1: MSKRSIEVNEEQDRVVSAKTESHSVPAIPASEEQDAPKNDLEEQLSDEFDSDGEIIEIDGDDEINDEDDLRKKQEEAETLVQKDQSEGNKEKIQELYLPHMSRPLGPDEVLEADPTVYEMLHNVNMPWPCLTLDVIPDTLGSERRNYPQSILLTTATQSSRKKENELMVLALSNLAKTLLKDDNEGEDDEEDDEDDVDPVIENENIPLRDTTNRLKVSPFAISNQEVLTATMSENGDVYIYNLAPQSKAFSTPGYQIPKSAKRPIHTVKNHGNVEGYGLDWSPLIKTGALLSGDCSGQIYFTQRHTSRWVTDKQPFTVSNNKSIEDIQWSRTESTVFATAGCDGYIRIWDTRSKKHKPAISVKASNTDVNVISWSDKIGYLLASGDDNGTWGVWDLRQFTPSNADAVQPVAQYDFHKGAITSIAFNPLDESIVAVGSEDNTVTLWDLSVEADDEEIKQQAAETKELQEIPPQLLFVHWQKEVKDVKWHKQIPGCLVSTGTDGLNVWKTISV
soluble expression in E. coli [2]: inefficient expression of soluble Rrb1
enrichment of the specific ribosomal protein mRNA (RPL3) [3]: roughly 100 -fold

B3: Yar1: ankyrin-repeat protein, chaperone of Rps3 (protein)
chain: MGLHSEPLDQEDQDTIILDARAGDLDSLKDIFTTLVSPELLSTCKESESDSTALHMAAANGHIETVRYILETVSRANSAEDLKAFVNEVNKTGNTALHWASLNGKLDVVKLLCDEYEADPFIRNKFGHDAIFEAENSGKEEVETYFLKKYDVEPEDDEEDTQTEGKNSVQITKGTEIEQVTKEATEALREETEKLNINKD
modifications: left off: TAP, end not stated, kept
notes: ankyrin-repeat protein, chaperone of Rps3
enrichment of the specific ribosomal protein mRNA (RPS3) [4]: roughly 100 -fold
